In doi:10.1101/2022.11.09.515782:

Target: glycophorin A TMD, BLaTM chimera
Experiment: split reporter

glycophorin A TMD, BLaTM chimera (domain or fragment)
ampicillin LD50: 100 µg/mL
